Laboratory results: patent US10513547B2, “Peptides and combination of peptides and scaffolds thereof for use in immunotherapy against colorectal carcinoma (CRC) and other cancers” (Immatics Biotechnologies GmbH, priority 2015, dated 2019)

Key:
HLA-A*02:01 = HLA-A*02:01 (Homo sapiens, UniProt P04439, D140Y/D185E/D98H/E176V/E277Q/G131W/G231S/I119V/I121R/I166T/I218V/L300P/L318F/N151K/N90K/P208A/P217A/Q86G/Q94H/R138H/R169H/T345S); experiment: MHC binding assay (UV-ligand exchange, beta2m ELISA, peptide exchange yield); settings: binding to HLA-A*02:01
Outline: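 Peptide–HLA-A*02:01 complexes formed by UV-ligand exchange, in which a UV-cleavable peptide is replaced by the test peptide. Exchange products, diluted 100-fold, were captured on streptavidin plates and detected with HRP anti-β2m ELISA at 450 nm. Yield was quantified against refolded monomer standards at 15-500 ng/ml.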

CD8+ T-cells = experiment: In vitro T-cell priming assay with aAPCs loaded with peptide/MHC and anti-CD28, pMHC multimer readout; assay type: cell-based, human; settings: HLA-A*02 restricted peptides; positive wells among evaluable
From the text: In order to obtain information regarding the immunogenicity of the TUMAPs of the present invention, the inventors performed investigations using an in vitro T-cell priming assay based on repeated stimulations of CD8+ T-cells with artificial antigen presenting cells (aAPCs) loaded with peptide/MHC complexes and anti-CD28 antibody.
In order to perform in vitro stimulations by artificial antigen presenting cells loaded with peptide-MHC complex (pMHC) and anti-CD28 antibody, the inventors first isolated CD8+ T-cells from fresh HLA-A*02 leukapheresis products via positive selection using CD8 microbeads (Miltenyi Biotec, Bergisch-Gladbach, Germany) of healthy donors obtained from the University clinics Mannheim, Germany, after informed consent.
PBMCs and isolated CD8+ lymphocytes were incubated in T-cell medium (TCM) until use consisting of RPMI-Glutamax (Invitrogen, Karlsruhe, Germany) supplemented with 10% heat inactivated human AB serum (PAN-Biotech, Aidenbach, Germany), 100 U/ml Penicillin/100 μg/ml Streptomycin (Cambrex, Cologne, Germany), 1 mM sodium pyruvate (CC Pro, Oberdorla, Germany), 20 μg/ml Gentamycin (Cambrex). 2.5 ng/ml IL-7 (PromoCell, Heidelberg, Germany) and 10 U/ml IL-2 (Novartis Pharma, Nürnberg, Germany) were also added to the TCM at this step.
Generation of pMHC/anti-CD28 coated beads, T-cell stimulations and readout was performed in a highly defined in vitro system using four different pMHC molecules per stimulation condition and 8 different pMHC molecules per readout condition.
The purified co-stimulatory mouse IgG2a anti human CD28 Ab 9.3 (Jung et al., 1987) was chemically biotinylated using Sulfo-N-hydroxysuccinimidobiotin as recommended by the manufacturer (Perbio, Bonn, Germany). Beads used were 5.6 μm diameter streptavidin coated polystyrene particles (Bangs Laboratories, Illinois, USA).
800.000 beads/200 μl were coated in 96-well plates in the presence of 4×12.5 ng different biotin-pMHC, washed and 600 ng biotin anti-CD28 were added subsequently in a volume of 200 μl. Stimulations were initiated in 96-well plates by co-incubating 1×10^6 CD8+ T-cells with 2×10^5 washed coated beads in 200 μl TCM supplemented with 5 ng/ml IL-12 (PromoCell) for 3 days at 37° C. Half of the medium was then exchanged by fresh TCM supplemented with 80 U/ml IL-2 and incubating was continued for 4 days at 37° C. This stimulation cycle was performed for a total of three times. For the pMHC multimer readout using 8 different pMHC molecules per condition, a two-dimensional combinatorial coding approach was used as previously described (Andersen et al., 2012) with minor modifications encompassing coupling to 5 different fluorochromes. Finally, multimeric analyses were performed by staining the cells with Live/dead near IR dye (Invitrogen, Karlsruhe, Germany), CD8-FITC antibody clone SK1 (BD, Heidelberg, Germany) and fluorescent pMHC multimers. For analysis, a BD LSRII SORP cytometer equipped with appropriate lasers and filters was used. Peptide specific cells were calculated as percentage of total CD8+ cells. Evaluation of multimeric analysis was done using the FlowJo software (Tree Star, Oreg., USA). In vitro priming of specific multimer+ CD8+ lymphocytes was detected by comparing to negative control stimulations.

| Substance | Peptide exchange (MHC class I binding score, peptide exchange yield) (HLA-A*02:01) | Wells positive [%] (CD8+ T-cells) |
| --- | --- | --- |
| 22 (GLIDEVMVL; listed as Homo sapiens) [compound 22] | “+++” (≥50 = +++) | “++” (20%-49% = ++) |
| 38 (SLAPTPVSA; listed as Homo sapiens) [compound 38] | “++” (≥20% = ++) | “+” (<20% = +) |
| 42 (SILDDSFKL; listed as Homo sapiens) [compound 42] | “++++” (≥75% = ++++) | “+” (<20% = +) |
| 47 (KLYERCEVV; listed as Homo sapiens) [compound 47] | “++” (≥20% = ++) | “+” (<20% = +) |
| 64 (KTLGKLWRL; listed as Homo sapiens) [compound 64] | “++” (≥20% = ++) | “++++” (> = 70% = ++++) |
| 124 (RVLPPSALQSV; listed as Homo sapiens) [compound 124] | “+++” (≥50 = +++) | “+” (<20% = +) |
| 127 (RLAELTVDEFLA; listed as Homo sapiens) [compound 127] | “+++” (≥50 = +++) | “+” (<20% = +) |
| 132 (ALLNAILHSA; listed as Homo sapiens) [compound 132] | “+++” (≥50 = +++) | “+” (<20% = +) |
| 136 (KLFDIFSQQV; listed as Homo sapiens) [compound 136] | “+++” (≥50 = +++) | “++” (20%-49% = ++) |
| 142 (SLVQRVETI; listed as Homo sapiens) [compound 142] | “+++” (≥50 = +++) | “+” (<20% = +) |
| 150 (RLADLEALKV; listed as Homo sapiens) [compound 150] | “+++” (≥50 = +++) | “++″ (20%-49% = ++) |

Now from value to substance, other results behind:

| Peptide exchange (MHC class I binding score, peptide exchange yield) (HLA-A*02:01) | Substance | Wells positive [%] (CD8+ T-cells) |
| --- | --- | --- |
| “+++” (≥50 = +++) | 17 (ALAAARVEL; listed as Homo sapiens) [compound 17] | “++” (20%-49% = ++) |
| “+++” (≥50 = +++) | 18 (FLSSLKGGLL; listed as Homo sapiens) [compound 18] | “+” (<20% = +) |
| “+++” (≥50 = +++) | 19 (RLYTKLLNEA; listed as Homo sapiens) [compound 19] | “+++” (50%-69% = +++) |
| “+++” (≥50 = +++) | 21 (VLIDHRWVL; listed as Homo sapiens) [compound 21] | “+” (<20% = +) |
| “+++” (≥50 = +++) | 31 (LLYGKYVSV; listed as Homo sapiens) [compound 31] | “++” (20%-49% = ++) |
| “++” (≥20% = ++) | 32 (KLNTETFGV; listed as Homo sapiens) [compound 32] | “++” (20%-49% = ++) |
| “+++” (≥50 = +++) | 37 (GLFAGLGGAGA; listed as Homo sapiens) [compound 37] | “+” (<20% = +) |
| “+++” (≥50 = +++) | 59 (LLTDNVVKL; listed as Homo sapiens) [compound 59] | “+” (<20% = +) |
| “++” (≥20% = ++) | 123 (KTLERSYLL; listed as Homo sapiens) [compound 123] | “+” (<20% = +) |
| “++” (≥20% = ++) | 133 (RTFEKIEEV; listed as Homo sapiens) [compound 133] | “+” (<20% = +) |
| “++++” (≥75% = ++++) | 141 (AVIEHLERL; listed as Homo sapiens) [compound 141] | “+” (<20% = +) |
